{
  "source": "patent US20060292634A1",
  "key": {"[1]": {"molecular_target": "ELK (3% skim milk powder solution)", "assay": "ELISA, ELK-coated control well, ~50 ng iMab per well, anti-VSV-HRP; urea-purified"}, "[2]": {"molecular_target": "ELK (3% skim milk powder solution)"}, "[3]": {"molecular_target": "ELK (3% skim milk powder solution)", "assay": "ELISA, ELK-coated control well, ~5 ng iMab per well, anti-VSV-HRP; urea-purified"}, "[4]": {"molecular_target": "ELK (3% skim milk powder solution)", "assay": "ELISA, ELK-coated control well, ~20 ng iMab per well, anti-VSV-HRP; urea-purified"}, "[5]": {"molecular_target": "chicken lysozyme (chicken), P00698", "sequence (P00698 19-147 limits assumed)": "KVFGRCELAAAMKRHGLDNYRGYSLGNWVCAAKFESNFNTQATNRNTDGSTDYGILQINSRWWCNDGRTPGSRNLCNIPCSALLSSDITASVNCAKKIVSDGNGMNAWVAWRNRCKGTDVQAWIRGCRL", "assay": "ELISA vs. lysozyme, iMab dilution 1:10, before pH 4.8 precipitation", "conditions": "remark: other sources report otherwise"}, "[6]": {"molecular_target": "chicken lysozyme (chicken), P00698", "assay": "ELISA vs. lysozyme, iMab dilution 1:100, before pH 4.8 precipitation", "conditions": "remark: other sources report otherwise"}, "[7]": {"molecular_target": "chicken lysozyme (chicken), P00698", "assay": "ELISA vs. lysozyme, iMab dilution 1:1000, before pH 4.8 precipitation", "conditions": "remark: other sources report otherwise"}, "[8]": {"molecular_target": "chicken lysozyme (chicken), P00698", "assay": "ELISA vs. lysozyme, iMab dilution 1:10,000, before pH 4.8 precipitation", "conditions": "remark: other sources report otherwise"}, "[9]": {"molecular_target": "ELK (3% skim milk powder solution)", "assay": "ELISA, ELK-coated control well, ~50 ng iMab per well, anti-VSV-HRP; heat (60 °C) purified"}, "[10]": {"molecular_target": "chicken lysozyme (chicken), P00698", "assay": "ELISA vs. lysozyme, iMab dilution 1:10, after precipitation at pH 4.8 and redissolving", "conditions": "remark: other sources report otherwise"}, "[11]": {"molecular_target": "chicken lysozyme (chicken), P00698", "assay": "ELISA vs. lysozyme, iMab dilution 1:100, after precipitation at pH 4.8 and redissolving", "conditions": "remark: other sources report otherwise"}, "[12]": {"molecular_target": "chicken lysozyme (chicken), P00698", "assay": "ELISA vs. lysozyme, iMab dilution 1:1000, after precipitation at pH 4.8 and redissolving", "conditions": "remark: other sources report otherwise"}, "[13]": {"molecular_target": "chicken lysozyme (chicken), P00698", "assay": "ELISA, lysozyme-coated well (100 µg/ml), ~50 ng iMab per well, anti-VSV-HRP; urea-purified", "conditions": "remark: other sources report otherwise"}, "[14]": {"molecular_target": "chicken lysozyme (chicken), P00698", "assay": "ELISA vs. lysozyme, iMab dilution 1:10,000, after precipitation at pH 4.8 and redissolving", "conditions": "remark: other sources report otherwise"}, "[15]": {"molecular_target": "chicken lysozyme (chicken), P00698", "assay": "ELISA, lysozyme-coated well (100 µg/ml), ~50 ng iMab per well, anti-VSV-HRP; heat (60 °C) purified", "conditions": "remark: other sources report otherwise"}},
  "note": "Like-named read-outs stand apart in the source and are kept apart here.",
  "data": [
    {"binder": "iMab1302 (designed binder, not shown: small tags and cut ends) VVKVVIKPSQNFIENGEDKKFTCRASGYTIGPKCIGWFSQNPEDDSTNVATINMGGGITYYGDSVKERFDIRRDNAKDTSTLSIDDAQPEDAGIYKCAADSTIYASYYECGHGLSTGGYGYDSEATVGVDIFVKLM", "values": [
      {"measurement": "Absorbtion (450 nm)", "setting": "[1]", "value": 0.045, "unit": "A450"}
    ]},
    {"binder": "iMab701 (designed binder) MASTITCEASGYTIGPACVAFDTTLGNNMGTYSAPLTSTTLGVATVTCAADSTIYASYYECGHGLSTGGYGYAAFSVPSVTVNFTA", "values": [
      {"measurement": "Absorbtion (450 nm)", "setting": "[2]", "value": 0.069, "unit": "A450"}
    ]},
    {"binder": "iMab1202 (designed binder, not shown: small tags and cut ends) IVKLVMEKRGNFENGQDCKLTIRASGYTIGPACDGFFCQFPSDDSFSTEDNMGGGITVNDAMKPQFDIRRDNAKGTWTLSMDFQPEGIYEMQCAADSTIYASYYECGHGLSTGGYGYDNPVRLGGFDVDVPDV", "values": [
      {"measurement": "Absorbtion (450 nm)", "setting": "[1]", "value": 0.041, "unit": "A450"}
    ]},
    {"binder": "iMab1200 (designed binder) HGLPMEKRGNFIVGQNCSLTCPASGYTIGPQCVFNCYFNSALAFSTENMGEWTLDMVFSDAGIYTMCAADSTIYASYYECGHGLSTGGYGYNPVSLGSFVVDSP", "values": [
      {"measurement": "Absorbtion (450 nm)", "setting": "[3]", "value": 0.04, "unit": "A450"}
    ]},
    {"binder": "iMab1602 (designed binder, not shown: small tags and cut ends) AVKPVIGSKAPNFGENGDVKTIDRASGYTIGPTCGGVFFQGPTDDSTNVATINMGGGITYYGDSVKETFDIRRDNAKSTRTESYDDNQPEGLTEVKCAADSTIYASYYECGHGLSTGGYGYDVSSRLYGYDILVGTQ", "values": [
      {"measurement": "Absorbtion (450 nm)", "setting": "[1]", "value": 0.043, "unit": "A450"}
    ]},
    {"binder": "iMab101 (designed binder, not shown: small tags and cut ends) VKLVEKGGNFVENDDDLKLTCRASGYTIGPYCMGWFRQAPNDDSTNVATINMGTVTLSMDDLQPEDSAEYNCAADSTIYASYYECGHGLSTGGYGYDSHYRGQGTDVTVSS", "values": [
      {"measurement": "Absorbtion (450 nm)", "setting": "[4]", "value": 0.043, "unit": "A450"}
    ]},
    {"binder": "iMab1300 (designed binder, not shown: small tags and cut ends) LQVDIKPSQGEISVGESKFFLCQASGYTIGPCISWFSPNGEKLNMGSSTLTIYNANIDDAGIYKCAADSTIYASYYECGHGLSTGGYGYQSEATVNVKIFQ", "values": [
      {"measurement": "Absorbtion (450 nm)", "setting": "[1]", "value": 0.041, "unit": "A450"}
    ]},
    {"binder": "iMab122 (designed binder, not shown: small tags and cut ends) NVKLVEKGGNFVENDDDLKLTCRASGRTFSSRTMGWFRQAPNDDSTNVATIRWNGGSTYYTNYGDSVKERFDIRVDQASNTVTLSMDDLQPEDSAEYNCAGTDIGDGWSGRYDYRGQGTDVTVSS", "values": [
      {"measurement": "Absorbtion (450 nm)", "setting": "[1]", "value": 0.051, "unit": "A450"}
    ]},
    {"binder": "iMab111 (designed binder, not shown: small tags and cut ends) NVKLVCKGGNFVENDDDLKLTCRAEGYTIGPYCMGWFRQAPNDDSTNVATINMGGGITYYGDSVKERFDIRRDNASNTVTLSMDDLQPEDSAEYNCAGDSTIYASYYECGHGLSTGGYGYDSHYRCQGTDVTVSS", "values": [
      {"measurement": "Absorbtion (450 nm)", "setting": "[1]", "value": 0.043, "unit": "A450"}
    ]},
    {"binder": "iMab100 (designed binder, not shown: small tags and cut ends) NVKLVEKGGNFVENDDDLKLTCRAEGYTIGPYCMGWFRQAPNDDSTNVATINMGGGITYYGDSVKERFDIRRDNASNTVTLSMDDLQPEDSAEYNCAGDSTIYASYYECGHGLSTGGYGYDSHYRGQGTDVTVSS", "values": [
      {"measurement": "Absorbtion (450 nm)", "setting": "[1]", "value": 0.04, "unit": "A450"},
      {"measurement": "Signal on Elisa", "setting": "[5]", "value": 0.36},
      {"measurement": "Signal on Elisa", "setting": "[6]", "value": 0.228},
      {"measurement": "Signal on Elisa", "setting": "[7]", "value": 0.128},
      {"measurement": "Signal on Elisa", "setting": "[8]", "value": 0.059},
      {"measurement": "Absorbtion (450 nm)", "setting": "[9]", "value": 0.041, "unit": "A450"},
      {"measurement": "Signal on Elisa", "setting": "[10]", "value": 0.39},
      {"measurement": "Signal on Elisa", "setting": "[11]", "value": 0.263},
      {"measurement": "Signal on Elisa", "setting": "[12]", "value": 0.169},
      {"measurement": "Absorbtion (450 nm)", "setting": "[13]", "value": 0.494, "unit": "A450"},
      {"measurement": "Signal on Elisa", "setting": "[14]", "value": 0.059},
      {"measurement": "Absorbtion (450 nm)", "setting": "[15]", "value": 0.369, "unit": "A450"}
    ]}
  ]
}
